Measurements reported in publication PMC9262625, “Structural and dynamic studies of DNA recognition by NF-κB p50 RHR homodimer using methyl NMR spectroscopy”.

How the values were obtained:
Conditions in all cases: protein: recombinant; tags: U-[2H,15N] or ILV methyl labeled; no tag stated; chain copies: 2
[1] = target: T1, p50 RHR homodimer (mouse (murine), UniProt P25799 39-363); assay: NMR (13C methyl HMQC); 1:1; split peaks, at least two bound conformers; NMR: 20 mM Tris pH 6.8, 150 mM NaCl, 2 mM DTT, 300 K; native gel: 20 mM Tris pH 8.0, 10% glycerol, room temperature, 20 min
[2] = target: T1, p50 RHR homodimer; assay: NMR (13C methyl HMQC, CPMG); 1:1; single bound conformation; NMR: 20 mM Tris pH 6.8, 150 mM NaCl, 2 mM DTT, 300 K; native gel: 20 mM Tris pH 8.0, 10% glycerol, room temperature, 20 min
[3] = target: T1, p50 RHR homodimer; assay: NMR (13C methyl HMQC); 1:1; heterogeneous bound conformations; NMR: 20 mM Tris pH 6.8, 150 mM NaCl, 2 mM DTT, 300 K; native gel: 20 mM Tris pH 8.0, 10% glycerol, room temperature, 20 min
[4] = target: T1, p50 RHR homodimer; assay: EMSA (native gel); 20 uM, 1:1; single band; NMR: 20 mM Tris pH 6.8, 150 mM NaCl, 2 mM DTT, 300 K; native gel: 20 mM Tris pH 8.0, 10% glycerol, room temperature, 20 min
[5] = target: T1, p50 RHR homodimer; assay: NMR (13C methyl HMQC); 1:1; two conformations; NMR: 20 mM Tris pH 6.8, 150 mM NaCl, 2 mM DTT, 300 K; native gel: 20 mM Tris pH 8.0, 10% glycerol, room temperature, 20 min
[6] = target: T1, p50 RHR homodimer; assay: NMR (13C methyl HMQC); 1:1; single bound conformation, shifts differ from MHC H2; NMR: 20 mM Tris pH 6.8, 150 mM NaCl, 2 mM DTT, 300 K; native gel: 20 mM Tris pH 8.0, 10% glycerol, room temperature, 20 min

T1 sequence (P25799 39-363): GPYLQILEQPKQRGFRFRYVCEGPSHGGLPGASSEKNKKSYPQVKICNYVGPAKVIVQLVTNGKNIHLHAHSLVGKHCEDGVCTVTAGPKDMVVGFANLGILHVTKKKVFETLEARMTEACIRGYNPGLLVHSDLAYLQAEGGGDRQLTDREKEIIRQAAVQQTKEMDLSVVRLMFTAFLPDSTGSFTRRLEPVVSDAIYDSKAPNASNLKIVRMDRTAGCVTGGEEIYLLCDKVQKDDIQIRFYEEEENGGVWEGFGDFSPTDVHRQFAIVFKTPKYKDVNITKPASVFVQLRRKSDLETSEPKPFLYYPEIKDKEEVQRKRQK

B1: κB proto (dsDNA)
DNA 1: GCTGGGAATTCCCAGC
DNA 2: GCTGGGAATTCCCAGC
binding result [1]: binds

B2: MHC H2 (dsDNA)
DNA 1: GCTGGGGATTCCCCAGC
DNA 2: GCTGGGGAATCCCCAGC
binding result [2]: binds

B3: Ig-κB (dsDNA)
DNA 1: GCTGGGACTTTCCAGC
DNA 2: GCTGGAAAGTCCCAGC
binding result [3]: binds

B4: MHC H2 M2 (dsDNA)
DNA 1: GCTGGGGATTTCCCAGC
DNA 2: GCTGGGAAATCCCCAGC
binding result [4]: binds

B5: 4xG-10 (4G-10) (dsDNA)
DNA 1: GCTGGGGATCCCCAGC
DNA 2: GCTGGGGATCCCCAGC
binding result [5]: binds

B6: MHC H2 M1 (dsDNA)
DNA 1: GCTGGGAATTTCCCAGC
DNA 2: GCTGGGAAATTCCCAGC
binding result [6]: binds

B7: H2-κB (dsDNA)
DNA 1: GCTGGGAATCCCCAGC
DNA 2: GCTGGGGATTCCCAGC
binding result [3]: binds

B8: IFN-κB (dsDNA)
DNA 1: GCTGGGAAATTCCAGC
DNA 2: GCTGGAATTTCCCAGC
binding result [3]: binds
